Data as given in publication PMC11398462 (bioRxiv, 2024).

Target: the molecule itself
Experiment: SEC

B1: Lipo-YcjN (recombinantly overexpressed lipidated YcjN, heterogeneously diacylated at cysteine 21) (natural protein, E. coli K-12, UniProt P76042 21-430, looked up)
chain: CKEENKTNVSIEFMHSSVEQERQAVISKLIARFEKENPGITVKQVPVEEDAYNTKVITLSRSGSLPEVIETSHDYAKVMDKEQLIDRKAVATVISNVGEGAFYDGVLRIVRTEDGSAWTGVPVSAWIGGIWYRKDVLAKAGLEEPKNWQQLLDVAQKLNDPANKKYGIALPTAESVLTEQSFSQFALSNQANVFNAEGKITLDTPEMMQALTYYRDLTANTMPGSNDIMEVKDAFMNGTAPMAIYSTYILPAVIKEGDPKNVGFVVPTEKNSAVYGMLTSLTITAGQKTEETEAAEKFVTFMEQADNIADWVMMSPGAALPVNKAVVTTATWKDNDVIKALGELPNQLIGELPNIQVFGAVGDKNFTRMGDVTGSGVVSSMVHNVTVGKADLSTTLQASQKKLDELIEQH
modifications: cysteine 21 diacylated, acyl chain compositions [16:0, 16:0] and [16:0, 18:1]
B1: binds.
